Target: sACE2_(2).v2.4-IgG1 (human) (UniProt Q9BYF1)
Assay: BLI

SARS-CoV-2 RBD-8h N501Y (from UniProt P0DTC2 333-529) (domain or fragment)
Kd: < 0.1 nM

SARS-CoV-2 RBD-8h Y449K (from UniProt P0DTC2 333-529) (domain or fragment)
koff: 0.004 s⁻¹
